Assays:
[1] = target: SARS-CoV-2 Receptor Binding Domain (RBD) protein (SARS-CoV-2, UniProt P0DTC2 319-541)
[2] = target: T1, MERS Receptor Binding Domain (RBD) protein (MERS virus, UniProt K9N5Q8 367-606); experiment: SPR; clone listed as COV2 only at the 21st table, row 51, column 3
T1 construct: also called Middle East Respiratory Syndrome (MERS) virus
T1 sequence: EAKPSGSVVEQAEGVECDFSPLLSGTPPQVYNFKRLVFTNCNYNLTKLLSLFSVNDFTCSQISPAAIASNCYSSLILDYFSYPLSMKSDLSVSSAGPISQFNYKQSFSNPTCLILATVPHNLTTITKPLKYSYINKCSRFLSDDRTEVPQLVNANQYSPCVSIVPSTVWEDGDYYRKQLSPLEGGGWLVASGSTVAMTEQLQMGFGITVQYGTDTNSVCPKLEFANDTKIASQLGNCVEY

[3] = target: T2, SARS-CoV-1 Receptor Binding Domain (RBD) protein (SARS-CoV-1, UniProt P59594 306-527); experiment: as above
T2 construct: also called SARS1

[4] = target: T1, MERS Receptor Binding Domain (RBD) …; experiment: SPR; clone listed as COV2 only at the 21st table, row 52, column 3
[5] = target: T2, SARS-CoV-1 Receptor Binding Domain …; experiment: as above

Binder	Kd [1] [nM]	koff [1] [s⁻¹]	kon [1] [M⁻¹ s⁻¹]	binding result [2]	binding result [3]	binding result [4]	binding result [5]
COVID19_P21_H01 (scFv, V domains shown) VH: QVQLVQSGAEVKKPGSSVKVSCKASGYGFSTYWIGWVRQAPGQGLEWMGWINPNSGGTNYAQKFQGRVTITADESTSTAYMELSSLRSEDTAVYYCAGGSGISTPMDVWGQGTLVTVSS VL: not shown	1.38	0.00022	160000	no binding (tested: up to 300 nM)	no binding (tested: up to 300 nM)		
COVID19_P22_C09 (scFv, V domains shown) VH: QVQLVQSGAEVKKPGSSVKVSCKASGYNFTDYHIQWVRQAPGQGLEWVGMIIPRHGGTAYAQRFQGRVTITADESTSTAYMELSSLRSEDTAVYYCAGGSGLTTPMDVWGQGTLVTVSS VL: not shown	32.8	0.0083	250000			no binding (tested: up to 300 nM)	no binding (tested: up to 300 nM)

From patent US11034762 (CENTIVAX, dated 2021)
